Laboratory results from paper PMC9621426, “Characterization of a novel pyruvate kinase from Trichinella spiralis and its participation in sugar metabolism, larval molting and development” (PLOS Neglected Tropical Diseases, 2022).

How the values were obtained:
purified protein [1] = substrate: C=C(OP(=O)(O)O)C(=O)O; experiment: purified protein; type: biochemical, Trichinella spiralis; conditions: co-substrate ADP, Tris-HCl pH 8.0, 37°C
purified protein [2] = substrate: Nc1ncnc2c1ncn2[C@@H]1O[C@H](COP(=O)(O)OP(=O)(O)O)[C@@H](O)[C@H]1O; experiment: purified protein; type: biochemical, Trichinella spiralis; conditions: co-substrate PEP, Tris-HCl pH 8.0, 37°C

B1: rTsPKM (recombinant T. spiralis pyruvate kinase M) (Trichinella spiralis) (protein)
chain: MSEKQSQKSRKLAKVAAIPAKTTLEHLCRLDTDHSVEKLVSKTGLICTIGPASCSVETLTKMIQAGMTIARLNFSHGSHDYHAQTVANIRKAVDSLAASGNGKVVAIALDTKGPEIRTGYLAVGSNEEVVVEANSAVRVTVDSGMKFRCTESLIYVDYENMPKVVSKGSKIYIDDGLISLLVNEVADNHLDCVVEHGGKLGSCKGVNLPDCEVDLPAVSEKDAQDLQFAVKHQCDMVFASFVRSAEAVRQIRQTLGVEGRGIKIVAKIENRQGIANVDSIIEEADGVMIARGDLGIEIPAEQVFVAQKAIIAKCRLAGKPAICATQMLESMVDKARPTRAEITDVANAVLDGADCVMLSGETAKGRHPVQAVRTMHQICCQAESVFFQKHFFDELQAMLPRPMNAMDTIAFAVTTAAANCNASAIILLTNTGASAVALSKCRPSSMIISVVKKEQTARYLRLYSGILPCVYDSKNSSSSSPNAVVDWVTSVDQRINYAILFGKKERIIHDGDNVIVVNGWREGPGHTNTIRIFAVEPLIPRP
Protein B1 has a Km (purified protein [1]) of 1510 µM and a Km (purified protein [2]) of 3330 µM.
